Data reported in paper PMC4072508, “Genome-Wide Prediction and Validation of Peptides That Bind Human Prosurvival Bcl-2 Proteins” (PLoS Computational Biology, 2014).

T1: Mcl-1, Q07820
T1 chain: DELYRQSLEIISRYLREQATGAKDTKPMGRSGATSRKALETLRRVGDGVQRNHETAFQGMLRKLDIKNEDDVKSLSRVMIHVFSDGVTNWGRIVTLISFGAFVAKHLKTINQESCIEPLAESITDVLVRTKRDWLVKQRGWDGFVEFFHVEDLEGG


Tests used:
Mcl-1, Q07820 = molecular target: T1, Mcl-1, Q07820; experiment: peptide SPOT array, c-Myc-tagged receptor at 1 uM or 100 nM, anti-c-Myc-Cy3
Bcl-xL, Q07817 = experiment: as above
Bcl-xL, Q07817, sequence (Q07817 1-209): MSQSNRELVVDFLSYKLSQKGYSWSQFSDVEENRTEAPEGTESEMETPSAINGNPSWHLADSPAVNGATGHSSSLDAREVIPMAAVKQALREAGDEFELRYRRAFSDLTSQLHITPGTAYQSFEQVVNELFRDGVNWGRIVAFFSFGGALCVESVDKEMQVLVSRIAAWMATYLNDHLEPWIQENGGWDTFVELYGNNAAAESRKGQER

SPOT signal as a fraction of Bim BH3's signal on the same receptor and array (Mcl-1, Q07820) | SPOT signal as a fraction of Bim BH3's signal on the same receptor and array (Bcl-xL, Q07817) | Binder
0.01 | – | DKATENCVCILHNLSYQLEAELPEKY [PKP2]
0.02 | – | KCCYGYCIDLLERLAEDTPFDFELYL [GRIN3B]
0.01 | 0.02 | PPDAHVLGKALEAAGQDFSLDLRSTG [CIITA]
0.01 | 0.01 | ELQAPATVQSLGLLLDRLCVGAAGGF
0.02 | 0.03 | NKTMTQLSSTDARCAKDILGFAVMFF [PKD2L1]
0.02 | 0.02 | SAGVPVRGVEDQAAAERFARCFGRTD
0.24 | – | SLIEYKAAVTLQRAALKFLAKYRKKK [IQCB1]
0.03 | 0.03 | CGDLASLSIDIWTLLEEVDGRRLVVA
0.01 | 0.01 | CALLGSTGERICLALDSAGGNLCFTV
0.01 | 0.02 | LGLGELAGLTVANELDSLTYDIANNK [STRN]
0.01 | 0.01 | ELQAPATVQSDGLLGDRLCVGAAGGF
0.02 | 0.02 | CGDLASLSIDIWTLGEEVDGRRLVVA
0.02 | 0.03 | RRTSINVVRHLGIVGECNIQFALHPT
0.02 | 0.02 | HPRKESQVRQLAWVLDGVWVSIRLDS [SPAG9]
0.01 | – | CVSDQELGLLIKEVADALGGGADPET [KCNK4]
0.03 | 0.02 | LNAVNYISTVLADWADNVFFLQLQQA [RINT1]
0.02 | – | TLLTPGYSVIIEKLAEGLDIQLKSPV [KDM1B]
0.01 | 0.02 | SPYVFNGGTILAIALEDFAIVASDTR [PSMB1]
0.23 | 0.17 | GLTWDPVGKYDASQADDRSLKVWRTL [HIRA]
0.48 | – | HQAEVQIARKLQCIADQFHRLHVQQH [BMF]
0.04 | 0.12 | SAGVPVRGVELQAAAERFARCFGRTD
0.04 | 0.04 | NKRHRPIGIGVQGLADAFILMRYPFE [RRM1]

SPOT signal as a fraction of Bim BH3's signal on the same receptor and array (Mcl-1, Q07820) | SPOT signal as a fraction of Bim BH3's signal on the same receptor and array (Bcl-xL, Q07817) | Binder
0.02 | 0.02 | DSLAKFAGRKLKDCLEDLLVEISEVL [PCM1]
0.01 | 0.02 | RLAHEHHCLRDKILGDCYYCVSGLPE [ADCY8]
0.1 | 0.14 | RRTSINVVRHLGIVLECNIQFALHPT
0.08 | 0.18 | RVSWNITGTVLASSLDDGCVRLWKAN [SEH1L]
0.01 | 0.01 | PSLSKELTSSDAGVGDVSFDSDSQFP [CRTC1]
0.01 | 0.02 | DHTDGVVACADGLIGDLCTAFGKDVL [KPNB1]
0.02 | 0.02 | HPRRESQVRQDAWIGDGVWVSIRLDS [MAPK8IP3]
0.02 | – | SEDHFRAAYLLKDVAKEAYQDVAFTQ [BNC1]
0.45 | – | GVMTQEVGQLLQDMGDDVYQQYRSLT [HUWE1]
0.02 | 0.02 | HGTSSRIGSSDKSVGEVMAIGRTFEE
0.18 | 0.29 | IVGGCVVGIAMARFLDFIRGMLKLIL [DIRC2]
0.02 | 0.02 | AALFLHAGCQLLTAGEDGKVQVWSGS [TEP1]
0.01 | 0.01 | CALLGSTGERICLAGDSAGGNLCFTV
0.17 | – | RFVVIDNCIALKKVASRLKKKRKKKN [TTC3]
0.01 | 0.06 | QQMHHNAATAMAQRADMLRGLSPRES [NCOR2]
0.02 | 0.02 | RIEMWISILELNELGEYAAVELHQAK [KIF13A]
0.03 | 0.03 | RRTSINVVRHDGIVGECNIQFALHPT
0.01 | – | REAAVSASDILQESAIHSPGTVEKEA [C12orf43]
0.03 | 0.03 | LRCEMASTGEVACFGEGIHTAFLKAM
0.07 | – | SSAPAAAAGLLREAGSGGRERADWRR [MAP3K1]
0.01 | – | CANHPSAVNVLTEHSEELGEFMETKG [ARHGEF7]
0.01 | 0.01 | ALKKADVGFADGIAGTDVAKEASDII [ATP2B1]
